Results: article PMC8583712, “p53 Transactivation Domain Mediates Binding and Phase Separation with Poly-PR/GR” (International Journal of Molecular Sciences, 2021)
Where no end group is shown, it is not given here. The star is where a group is joined. FITC = O=C1OC2(c3ccc(O)cc3Oc3cc(O)ccc32)c2ccc(NC(=S)*)cc21

B1: N-terminally fluorescein isothiocyanate (FITC)-labelled PR25 (peptide)
peptide: {FITC}-PRPRPRPRPRPRPRPRPRPRPRPRPRPRPRPRPRPRPRPRPRPRPRPRPR
notes: C9orf72 repeat-derived dipeptide repeat; also called FITC-labeled PR25; FITC-PR25; source: synthetic peptide (Peptide Specialty Laboratories GmbH, HPLC-purified)
B2: N-terminally fluorescein isothiocyanate (FITC)-labelled GR25 (peptide)
peptide: {FITC}-GRGRGRGRGRGRGRGRGRGRGRGRGRGRGRGRGRGRGRGRGRGRGRGRGR
notes: C9orf72 repeat-derived dipeptide repeat; also called FITC-labeled GR25; FITC-GR25; source: synthetic peptide (Peptide Specialty Laboratories GmbH, HPLC-purified)
B3: p53^TAD2 (human p53 transactivation domain 2, amino acids 37 to 57) (domain or fragment, UniProt P04637 37-57, looked up)
chain: SQAMDDLMLSPDDIEQWFTED
notes: human p53, amino acids 37 to 57 (TAD2 construct); 15N-labelled for NMR, unlabelled for fluorescence polarisation; source: E. coli BL21-DE3 Star, purified (lysis in 6 M urea, Ni-NTA, TEV cleavage, second Ni-NTA, SEC on Superdex Peptide)

Tests used:
p53^TAD2 = molecular target: T1, p53^TAD2 (Homo sapiens, UniProt P04637); experiment: Fluorescence polarization, FITC-labeled PR25/GR25 with p53^TAD2; type: binding; conditions: 100 nM FITC-labelled (N-terminal) peptide, 20 mM Hepes pH 7.0, 50 mM NaCl, 2 mM TCEP, 0.04% NaN3, room temperature, 35 µL, λex 495/λem 530 nm; 1:1 complex; mean of three experiments, errors = SD of the fit; read-out: equilibrium dissociation constant (Kd), p53^TAD2
T1 construct: amino acids 37 to 57 (p53 ^TAD2); ZZ-His6 (cleaved yes); made in house; host or cells: E. coli BL21-DE3 Star
Text: Measurements were taken at room temperature in black 384-well plates using a ClarioStar Plus (BMG labtech, Ortenberg, Germany) spectrophotometer. Filters were selected as a function of FITC optical characteristics (λex= 495 nm, and λem= 530 nm). […] The polarization data were fitted using graphpad prism 8 with the following equation:(3) P=P0+Pmax×L/L + Kd
Here, P0 represents the polarization of FITC-labelled peptides in absence of p53^1−94 and p53^TAD2, and Pmax to the highest polarization of the binding curve corresponding to the saturation of the interaction. L corresponds to the concentration of p53^1–94 and p53^TAD2 proteins, and Kd is the dissociation constant.

[1] = molecular target: T2, p53^1-94 (human p53 residues 1 to 94: transactivation domains 1 and 2 and poly-proline region) (human, UniProt P04637 1-94); experiment: fluorescence polarisation; 100 nM FITC-labelled PR25/GR25 with increasing concentrations of p53 1-94 or p53 TAD2; room temperature; 20 mM Hepes pH 7.0, 50 mM NaCl, 2 mM TCEP, 0.04% NaN3; fit assuming a 1:1 complex; conditions: both partners purified
T2 construct: human p53, amino acids 1 to 94; 15N- or 13C,15N-labelled for NMR, unlabelled for fluorescence polarisation; also called N-terminal disordered region; source: E. coli BL21-DE3 Star, purified (lysis in 6 M urea, Ni-NTA, TEV cleavage, second Ni-NTA, SEC on Superdex 75 Increase)
T2 sequence (P04637 1-94): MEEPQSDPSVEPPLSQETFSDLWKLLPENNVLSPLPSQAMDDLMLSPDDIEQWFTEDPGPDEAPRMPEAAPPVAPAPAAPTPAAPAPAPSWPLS

[2] = molecular target: B2; experiment: as above; conditions: both partners purified
[3] = molecular target: B1; experiment: as above; conditions: both partners purified

| Kd (p53^TAD2) | Kd [1] | Molecule | also measured |
| --- | --- | --- | --- |
| 3.64 ± 1.16 µM |  | N=C(N)NCCC[C@H](NC(=O)[C@@H]1CCCN1C(=O)[C@H](CCCNC(=N)N)NC(=O)[C@@H]1CCCN1C(=O)[C@H](CCCNC(=N)N)NC(=O)[C@@H]1CCCN1C(=O)[C@H](CCCNC(=N)N)NC(=O)[C@@H]1CCCN1C(=O)[C@H](CCCNC(=N)N)NC(=O)[C@@H]1CCCN1C(=O)[C@H](CCCNC(=N)N)NC(=O)[C@@H]1CCCN1C(=O)[C@H](CCCNC(=N)N)NC(=O)[C@@H]1CCCN1C(=O)[C@H](CCCNC(=N)N)NC(=O)[C@@H]1CCCN1C(=O)[C@H](CCCNC(=N)N)NC(=O)[C@@H]1CCCN1C(=O)[C@H](CCCNC(=N)N)NC(=O)[C@@H]1CCCN1C(=O)[C@H](CCCNC(=N)N)NC(=O)[C@@H]1CCCN1C(=O)[C@H](CCCNC(=N)N)NC(=O)[C@@H]1CCCN1C(=O)[C@H](CCCNC(=N)N)NC(=O)[C@@H]1CCCN1C(=O)[C@H](CCCNC(=N)N)NC(=O)[C@@H]1CCCN1C(=O)[C@H](CCCNC(=N)N)NC(=O)[C@@H]1CCCN1C(=O)[C@H](CCCNC(=N)N)NC(=O)[C@@H]1CCCN1C(=O)[C@H](CCCNC(=N)N)NC(=O)[C@@H]1CCCN1C(=O)[C@H](CCCNC(=N)N)NC(=O)[C@@H]1CCCN1C(=O)[C@H](CCCNC(=N)N)NC(=O)[C@@H]1CCCN1C(=O)[C@H](CCCNC(=N)N)NC(=O)[C@@H]1CCCN1C(=O)[C@H](CCCNC(=N)N)NC(=O)[C@@H]1CCCN1C(=O)[C@H](CCCNC(=N)N)NC(=O)[C@@H]1CCCN1C(=O)[C@H](CCCNC(=N)N)NC(=O)[C@@H]1CCCN1C(=O)[C@H](CCCNC(=N)N)NC(=O)[C@@H]1CCCN1C(=O)[C@H](CCCNC(=N)N)NC(=O)[C@@H]1CCCN1)C(=O)O [PR25] |  |
| 2.85 ± 0.51 µM |  | N=C(N)NCCC[C@H](NC(=O)CNC(=O)[C@H](CCCNC(=N)N)NC(=O)CNC(=O)[C@H](CCCNC(=N)N)NC(=O)CNC(=O)[C@H](CCCNC(=N)N)NC(=O)CNC(=O)[C@H](CCCNC(=N)N)NC(=O)CNC(=O)[C@H](CCCNC(=N)N)NC(=O)CNC(=O)[C@H](CCCNC(=N)N)NC(=O)CNC(=O)[C@H](CCCNC(=N)N)NC(=O)CNC(=O)[C@H](CCCNC(=N)N)NC(=O)CNC(=O)[C@H](CCCNC(=N)N)NC(=O)CNC(=O)[C@H](CCCNC(=N)N)NC(=O)CNC(=O)[C@H](CCCNC(=N)N)NC(=O)CNC(=O)[C@H](CCCNC(=N)N)NC(=O)CNC(=O)[C@H](CCCNC(=N)N)NC(=O)CNC(=O)[C@H](CCCNC(=N)N)NC(=O)CNC(=O)[C@H](CCCNC(=N)N)NC(=O)CNC(=O)[C@H](CCCNC(=N)N)NC(=O)CNC(=O)[C@H](CCCNC(=N)N)NC(=O)CNC(=O)[C@H](CCCNC(=N)N)NC(=O)CNC(=O)[C@H](CCCNC(=N)N)NC(=O)CNC(=O)[C@H](CCCNC(=N)N)NC(=O)CNC(=O)[C@H](CCCNC(=N)N)NC(=O)CNC(=O)[C@H](CCCNC(=N)N)NC(=O)CNC(=O)[C@H](CCCNC(=N)N)NC(=O)CNC(=O)[C@H](CCCNC(=N)N)NC(=O)CN)C(=O)O [GR25] |  |
|  | 1840 nM | B1 |  |
|  | 430 nM | B2 |  |
|  |  | B3 | Kd [2]: 2850 nM; Kd [3]: 3.64 µM |
